From US20110105724A1 (published 2011)
Positions count from the first letter of the chain named.

What was measured:
recombinant human ENA-78 = target: T1, recombinant human ENA-78 (human, UniProt P42830 37-114); test: ELISA, hybridoma supernatant on immobilized recombinant chemokine
T1 sequence (looked up): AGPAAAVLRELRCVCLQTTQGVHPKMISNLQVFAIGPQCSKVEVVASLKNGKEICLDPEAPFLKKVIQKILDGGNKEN
Source text: (§1) Hyridoma supernatants were screened for their antibody binding activities to recombinant human IL-8, Groβ and ENA-78, immobilized on ELISA plates. […] They were further assessed for their ability to recognize guinea pig and cynomolgus monkey orthologues. Selected hybridomas were cloned by limiting dilution cloning. The antibody designated 1C1.5E5 was one of the antibodies specific for human IL-8 that were selected for further analysis. Following humanization, the antibody combinations designated A0L0, A0L1, A0L2, AIL0, AIL1, and AIL2 also were determined to retain the ability to bind human IL-8.

recombinant human Groβ = target: T2, recombinant human Groβ (human, UniProt P19875 35-107); test: as above
T2 construct: also called Gro-beta
T2 sequence (looked up): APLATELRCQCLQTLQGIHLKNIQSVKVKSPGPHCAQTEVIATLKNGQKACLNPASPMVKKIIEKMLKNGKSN
Source text: as §1

[1] = target: T3, human IL-8 (interleukin-8) (human, UniProt P10145 28-99, limits assumed); test: SPR (Biacore T100/A100), mouse mAb captured on anti-mouse IgG-Fc, IL-8 as analyte, 1:1 model
T3 construct: also called recombinant human IL-8
T3 sequence (looked up): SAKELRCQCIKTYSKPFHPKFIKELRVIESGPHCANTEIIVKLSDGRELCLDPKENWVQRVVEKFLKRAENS
Source text: Protein A or rabbit anti mouse IgG-Fc (Biacore BR-1005-14) was immobilised on a CM5 (Biacore BR-1000-14) chip by primary amine coupling in accordance with the manufactures instructions. Supernatant or purified from parental mouse mAb was captured on the antimouse IgG-Fc surface whilst chimeric antibody was captured on the Protein A surface. After capture defined concentrations of IL8 are passed over the antibody captured surface, a separate capture event was used for each analyte injection. […] An injection of buffer was also passed over the antibody captured surface and this was used for double referencing. For the analysis of the parental supernatant, an additional injection of an irrelevant mAb supernatant was injected over the antibody captured surface to detect any non-specific binding due to supernatant components. The data were analysed using the analysis software inherent to the machine, using the 1:1 model of binding. The work was carried out on the Biacore T100 or A100.

[2] = target: T3, human IL-8 (interleukin-8); test: SPR (Biacore T100, 25 C), antibody captured on anti-human IgG, IL-8 as analyte, 1:1 model, Run 1
Source text: (§2) Briefly the method for Biacore analysis was as follows, anti human IgG (Biacore BR-1008-39) was immobilised on a CM5 sensor chip via primary amine coupling. The humanised or chimeric antibodies were captured on this surface at between 440-500 resonance units (RU's). IL8 was then passed over the captured antibody surface at defined concentrations with regeneration using 3M MgCl₂ after each cycle. A buffer injection over the antibody captured surface was used for double referencing. The run was carried out at 25° C. using HBS-EP buffer, on A Biacore T100 machine. The data was analysed using the 1:1 model in the analysis software inherent to the machine. Table below details the results from two separate runs. Run 1 used IL8 concentrations of 64 nM, 16 nM, 4 nM, 1 nM, 0.25 nM, whilst Run 2 used II8 concentrations 32 nM, 16 nM, 8 nM, 4 nM, 2 nM, 1 nM, 0.5 nM, 0.25 nM.

[3] = target: T3, human IL-8 (interleukin-8); test: SPR (Biacore T100, 25 C), antibody captured on anti-human IgG, IL-8 as analyte, 1:1 model, Run 2
Source text: as §2

[4] = target: T3, human IL-8 (interleukin-8); test: ELISA

B1: mouse monoclonal antibody 1C1.5E5 (antibody, V domains shown)
VH: QVQLQQPGVELVMPGASVKLSCKASGYTFTSYWMHWVKQRPGQGLEWIGEIDPSDSNTNYNQKFKGKATLTLDKSSSTAYMQLTSLTSEDSAVYYCARELLHAVYWGQGTTLTVSS
VL: DIQMTQSPSSLSASLGGKVTITCTASQDIHKYISWFQHKPGKGPRLLIHYTSTLQPGIPSRFSGSGSGRDYSFSISNLEPEDVATYYCLQYDNLWTFGGGTKLDIKR
notes: also called 1C1.5E5 mAb
B1 was tested, and the binding result (recombinant human ENA-78) was “no binding”, the binding result (recombinant human Groβ) was “no binding” and the Kd [1] was 45.4 pM. For the same binder, the koff [1] was 0.000184 s⁻¹.

B2: humanized antibody A0L1 (antibody, human IgG1, kappa, V domains shown)
VH: QVQLVQSGAEVKKPGASVKVSCKASGYTFTSYWMHWVRQAPGQGLEWMGEIDPSDSNTNYNQKFKGRVTMTRDTSISTAYMELSRLRSDDTAVYYCARELLHAVYWGQGTLVTVSS
VL: DIQMTQSPSSLSASVGDRVTITCTASQDIHKYISWYQQKPGKAPKLLIHYTSTLQPGVPSRFSGSGSGTDFTFTISSLQPEDIATYYCLQYDNLWTFGQGTKVEIKR
notes: Humanized 1C1.5E5, human IgG1/kappa
B2 gave a Kd [2] of 67.6 pM, a koff [2] of 0.001 s⁻¹ and a kon [2] of 1.49e+07 M⁻¹ s⁻¹. It also gave a Kd [3] of 67.9 pM, a koff [3] of 0.00106 s⁻¹ and a kon [3] of 1.56e+07 M⁻¹ s⁻¹.

B3: humanized antibody A0L0 (antibody, human IgG1, kappa, V domains shown)
VH: B2 VH
VL: B2 VL with H49Y, Y50D
notes: as for B2
In the case of B3, the Kd [2] is reported as 71.2 pM, the koff [2] is reported as 0.000791 s⁻¹ and the kon [2] is reported as 1.11e+07 M⁻¹ s⁻¹. It also gave a Kd [3] of 81.6 pM, a koff [3] of 0.000772 s⁻¹ and a kon [3] of 9.5e+06 M⁻¹ s⁻¹.

B4: humanized antibody A0L2 (antibody, human IgG1, kappa, V domains shown)
VH: B2 VH
VL: B2 VL with F71Y
notes: as for B2
B4: binds [4].

B5: humanized antibody A1L0 (antibody, human IgG1, kappa, V domains shown)
VH: B2 VH with R67K
VL: B2 VL with H49Y, Y50D
notes: Humanized 1C1.5E5, human IgG1/kappa; also called AIL0
B5 was tested, and the Kd [2] was 87.2 pM, the koff [2] was 0.000735 s⁻¹ and the kon [2] was 8.43e+06 M⁻¹ s⁻¹. For the same binder, the Kd [3] was 95.4 pM, the koff [3] was 0.00075 s⁻¹ and the kon [3] was 7.87e+06 M⁻¹ s⁻¹.

B6: humanized antibody A1L1 (antibody, human IgG1, kappa, V domains shown)
VH: B2 VH with R67K
VL: B2 VL
notes: Humanized 1C1.5E5, human IgG1/kappa; also called AIL1
B6: binds [4].

B7: humanized antibody A1L2 (antibody, human IgG1, kappa, V domains shown)
VH: B2 VH with R67K
VL: B2 VL with F71Y
notes: Humanized 1C1.5E5, human IgG1/kappa; also called AIL2
B7: binds [4].

B8: chimeric antibody HcLc made from murine 1C1.5E5 (antibody, human IgG1, kappa, V domains shown)
VH: B1 VH with T111L, L112V
VL: B1 VL
notes: Murine variable regions on human IgG1 and human kappa constant regions; also called chimera
B8 was tested, and the Kd [2] was 18.4 pM, the koff [2] was 0.000506 s⁻¹ and the kon [2] was 2.75e+07 M⁻¹ s⁻¹. It also gave a Kd [3] of 21.1 pM, a koff [3] of 0.000566 s⁻¹ and a kon [3] of 2.68e+07 M⁻¹ s⁻¹.
